# Experimental data from US5145837A, “Treatment of arthritis” (Sandoz Ltd., priority 1988, dated 1992).
# B1: PTH: parathyroid hormone used to stimulate prostaglandin E2 production (protein, UniProt P01270 32-115, looked up)
# Parathyroid hormone: SVSEIQLMHNLGKHLNSMERVEWLRKKLQDVHNFVALGAPLAPRDAGSQRPRKKEDNVLVESHEKSLGEADKADVNVLTKAKSQ
# modifications: Parathyroid hormone
# notes: parathyroid hormone used to stimulate prostaglandin E2 production
# Columns and labels:
# [1] = Tolerability; conditions: in vivo
# [2] = tested on: prostaglandin E2 production in mouse calvariae; assay: Inhibitory effect on prostaglandin E2 production stimulated by PTH in organ cultures of mouse calvariae; assay type: cell-based
# Method: Organ cultures of mouse calvariae are first prepared according to the principles of U. L. Ivey, D. R. Wright, A. H. Tashjian, J. Clin. Invest. 58:1327 (1976) as follows:
# Frontal and parietal bones are dissected from neonatal (5 to 6-day-old) mice (strain CD-1), split along the sagittal suture, and cultured in 2 ml of BGJ-medium containing 1 mg/ml bovine serum albumin, penicillin and streptomycin in 35 mm plastic tissue culture wells. […]
# The cells are cultured for another 48 hours. During the entire culture period, the multi-well dishes are shaken on a rocker platform (15 oscillations/min) in a humidified atmosphere of 5% CO2 in air at 37° C. The calvaria-conditioned medium is harvested and placed at 4° C.
# An aliquot of the medium is then assayed for prostaglandin E2 using a standard radioimmunossay. Prostaglandin E2 levels are reduced.
Molecule,tolerated dose [1],PGE2 synthesis ([2]; PTH 10^-7 M alone (so in the source)),PGE2 synthesis ([2]; PTH 10^-10 M alone)
C[C@@H](O)[C@@H]1NC(=O)[C@H](CCCCN)NC(=O)[C@@H](Cc2c[nH]c3ccccc23)NC(=O)[C@H](Cc2ccccc2)NC(=O)[C@@H](NC(=O)[C@H](N)Cc2ccccc2)CSSC[C@@H](C(=O)N[C@H](CO)[C@@H](C)O)NC1=O [Compound IVa],≥ 1 mg,,
B1,,340 pg/mL,50 pg/mL
